# In patent US20130330346A1 (Novartis, published 2013):
# Where two headings read alike, the source gives them in different places. Ends that are not written are not given here.
# T1: Cynomolgus CXCR2 (cynomolgus, UniProt Q28519 3-353 (rhesus entry))
# T1 chain: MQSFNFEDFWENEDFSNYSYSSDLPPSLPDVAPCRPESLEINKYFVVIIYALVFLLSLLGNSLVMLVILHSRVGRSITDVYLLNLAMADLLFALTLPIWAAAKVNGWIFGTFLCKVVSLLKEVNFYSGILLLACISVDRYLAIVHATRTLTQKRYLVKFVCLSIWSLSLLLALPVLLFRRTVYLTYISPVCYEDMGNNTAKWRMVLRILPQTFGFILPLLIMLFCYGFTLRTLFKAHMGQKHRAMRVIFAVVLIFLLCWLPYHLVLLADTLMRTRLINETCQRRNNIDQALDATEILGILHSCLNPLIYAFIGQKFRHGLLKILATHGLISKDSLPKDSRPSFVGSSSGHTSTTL
# T2: Human CXCR2 (human, UniProt P25025 1-360)
# T2 sequence: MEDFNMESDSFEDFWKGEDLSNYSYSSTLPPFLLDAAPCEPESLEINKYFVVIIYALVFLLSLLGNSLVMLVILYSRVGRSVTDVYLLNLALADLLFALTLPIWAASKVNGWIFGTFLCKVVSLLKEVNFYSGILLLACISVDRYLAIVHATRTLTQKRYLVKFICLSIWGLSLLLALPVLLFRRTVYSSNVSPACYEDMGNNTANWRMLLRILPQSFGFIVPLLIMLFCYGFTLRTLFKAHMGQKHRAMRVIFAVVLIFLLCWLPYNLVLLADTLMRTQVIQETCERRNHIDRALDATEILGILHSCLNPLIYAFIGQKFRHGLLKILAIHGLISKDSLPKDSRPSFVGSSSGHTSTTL
# T3: Human 1to19 peptide (human)
# T3 construct: First 19 N-terminal amino acids of human CXCR2, captured on neutravidin; also called human CXCR2 1 to19 peptide; 1-19 Nter peptide
# T3 peptide: MEDFNMESDSFEDFWKGED-biotin
# Legend:
# [1] = molecular target: T1, Cynomolgus CXCR2; assay: cell-based or functional assay
# [2] = molecular target: T2, Human CXCR2; assay: cell-based or functional assay
# [3] = molecular target: T3, Human 1to19 peptide; assay: ELISA, periplasmic extract on biotinylated peptide
# Procedure: In another setup, periplasmic extracts were analyzed for binding to human 1 to 19 peptide by ELISA. MaxiSorb plates (Nunc, 430341) were coated for two hours with neutravidin followed by one hour blocking (PBS, 1% casein). Then 100 nM biotinylated human 1 to 19 peptide was added to these plates for one hour (PBS, 0.1% casein, 0.05% tween20) followed by one hour incubation with 10-fold dilutions of periplasmic extracts. Unbound periplasmic extracts were washed away (PBS supplemented with 0.05% tween20) and bound Nanobodies were detected using mouse anti-myc (Roche, 11667149001) followed by rabbit anti-mouse-HRP conjugate (Dakocytomation, P0260). Table 8 summarizes the ratios of the binding signals of anti-CXCR2Nanobodies over an irrelevant control Nanobody.
# [4] = molecular target: T1, Cynomolgus CXCR2; assay: cell-based or functional assay
# [5] = molecular target: T2, Human CXCR2; assay: cell-based or functional assay; remark: listed apart in the source
# [6] = molecular target: T1, Cynomolgus CXCR2; assay: FACS competition vs 3 nM FMAT-Blue Gro-α
# Procedure: (§1) Purified monovalent anti-CXCR2Nanobodies were titrated against 3 nM FMAT-Blue-labeled Gro-α in the FACS ligand competition assay on human and cynomolgus CXCR2 (Table 10). On human CXCR2, blocking potencies range between double digit nM and sub-nM whereas on cynomolgus CXCR2, they range between single and double digit nM.
# [7] = molecular target: T2, Human CXCR2; assay: FACS competition vs 3 nM FMAT-Blue Gro-α
# Procedure: as §1
# [8] = molecular target: T1, Cynomolgus CXCR2; assay: cell-based or functional assay
# [9] = molecular target: T2, Human CXCR2; assay: cell-based or functional assay; remark: listed apart in the source
# [10] = molecular target: T1, Cynomolgus CXCR2; assay: FACS hGro-α competition
# [11] = molecular target: T1, Cynomolgus CXCR2; assay: cell-based or functional assay
# [12] = molecular target: T2, Human CXCR2; assay: cell-based or functional assay; remark: listed apart in the source
# [13] = molecular target: T2, Human CXCR2; assay: FACS, periplasmic extract vs FMAT Blue Gro-α
# How it was run: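 Cells (2×10⁵) preincubated 30 min at 4 °C with ½-diluted periplasmic extracts in PBS/10% FBS. An equal volume of 6 nM FMAT Blue-labelled human Gro-α was then added for another 30 min at 4 °C in the dark. After washing, dead cells were excluded with propidium iodide and binding read by flow cytometry.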
# [14] = molecular target: T1, Cynomolgus CXCR2; assay: FACS hGro-α competition
# [15] = molecular target: T2, Human CXCR2; assay: FACS hGro-α competition
# [16] = molecular target: T1, Cynomolgus CXCR2; assay: FACS hGro-α competition
# [17] = molecular target: T2, Human CXCR2; assay: FACS hGro-α competition; remark: listed apart in the source
# [18] = molecular target: T2, Human CXCR2; assay: cell-based or functional assay; remark: listed apart in the source
# [19] = molecular target: T1, Cynomolgus CXCR2; assay: cell-based or functional assay
# [20] = molecular target: T2, Human CXCR2; assay: cell-based or functional assay; remark: listed apart in the source
# [21] = molecular target: T2, Human CXCR2; assay: immunoluminescence, HEK-293T with wild type receptor, 1.0 ug/ml, anti-myc detection
# [22] = molecular target: T1, Cynomolgus CXCR2; assay: cell-based or functional assay
# [23] = molecular target: T2, Human CXCR2; assay: cell-based or functional assay; remark: listed apart in the source
# [24] = molecular target: T1, Cynomolgus CXCR2; assay: FACS hGro-α competition
# [25] = molecular target: T2, Human CXCR2; assay: FACS hGro-α competition; remark: listed apart in the source
Binder,FLIPR % inhibition max [1],FLIPR IC50 (GRO-α induced calcium release) [1],FLIPR % inhibition max [2],FLIPR IC50 (GRO-α induced calcium release) [2],[35S]GTPγS % inhibition max (GRO-α) [2],[35S]GTPγS IC50 (GRO-α) [2],ratio of binding signal relative to blank control [3],% inhibition of max [6],IC50 [6],% inhibition of max [7],IC50 [7],Cynomologus WBSC IC50 (rhGROα) [8],Human WBSC IC50 (rhGROα) [9],FACS Gro-α competition (% inhibition) [13],other results
"54B12 (VHH, Tested as periplasmic extract (pAX50) and as purified His6-tagged protein (pAX100); also called 054B12; not shown: C-terminal c-myc tag and His6 tag coded by the vector) VHH: EVQLVESGGGLVQAGGSLTLSCAVSGSTFRINTMGWYRRAPGKQRELVAARDRGGYINYVDSVKGRFTVSRDNAKPTMYLQMNSLKPEDTAVYYCHAGTQDRTGRNFDRWGQGTQVTVSS",100%,4080 nM,100%,153 nM,71.8%,15.4 nM,75.5 ratio,63%,39.5 nM,35%,0.857 nM,> 100 nM,19.7 nM,,FLIPR hGro-α IC50 [4]: 1100 nM; FLIPR hGro-α IC50 [5]: 150 nM; IC50 [10]: 33 nM
"CXCR20104 (VHH, also called CXCR2104) VHH: EVQLLESGGGLVQPGGSLRLSCAVSGSTFRINTMGWYRQAPGKQRELVAARDRGGYINYVDSVKGRFTISRDNSKPTMYLQMNSLRPEDTAVYYCHAGTQDRTGRNFDRWGQGTLVTVSS",,,,,,,,,,,,,,,FLIPR hGro-α IC50 [4]: 3500 nM; FLIPR hGro-α IC50 [5]: 59 nM; IC50 [10]: 13 nM
"163D2 (VHH, Tested as periplasmic extract (pAX50) and as purified His6-tagged protein (pAX100); also called 163D02; not shown: C-terminal c-myc tag and His6 tag coded by the vector) VHH: EVQLVESGGGLVQAGGSLRLSCAASGRTFSDYAMGWFRQAPGKEREFVAAITWNGGRVFYTASVKGRFTISRDNAKNTMYLQMNSLKPEDTAVYYCAADKDRRTDYLGHPVAYWGQGTQVTVSS",100%,37.2 nM,100%,1.91 nM,100%,53.2 nM,0.5 ratio,91%,14.8 nM,96.4%,6.95 nM,> 100 nM,6.6 nM,86.8%,FLIPR hGro-α IC50 [11]: 92 nM; FLIPR hGro-α IC50 [12]: 66 nM; IC50 [14]: 7.1 nM; IC50 [15]: 2.8 nM
CXCR20086 (VHH) VHH: EVQLLESGGGLVQPGGSLRLSCAASGRTFSDYAMGWFRQAPGKEREFVAAITWNGGRVFYTASVKGRFTISRDNSKNTLYLQMNSLRPEDTAVYYCAADKDRRTDYLGHPVAYWGQGTLVTVSS,,,,,,,,,,,,,,,FLIPR hGro-α IC50 [11]: 85 nM; FLIPR hGro-α IC50 [12]: 73 nM; IC50 [14]: 4.8 nM; IC50 [15]: 2 nM
"127D1 (VHH, Tested as periplasmic extract (pAX50) and as purified His6-tagged protein (pAX100); also called 127D01; not shown: C-terminal c-myc tag and His6 tag coded by the vector) VHH: EVQLVESGGGLVQAGESLRLSCAASGSTFDFKVMGWYRQPPGKQREGVAAIRLSGNMHYAESVKGRFTISKANAKNTVYLQMNSLRPEDTAVYYCKVNIRGQDYWGQGTQVTVSS",100%,753 nM,100%,21.9 nM,66%,12.5 nM,39.5 ratio,82.6%,4.41 nM,61.1%,0.309 nM,> 100 nM,4.9 nM,46.7%,"IC50 [16]: 6.1 nM; IC50 [17]: 0.55 nM; IC50 (M) at 5 nM GROα (inhibition of GRO-α, FIG. 2) [18]: 1.64e-09 M; IC50 (M) at 15 nM GROα (inhibition of GRO-α, FIG. 2) [18]: 2.04e-09 M; IC50 (M) at 45 nM GROα (inhibition of GRO-α, FIG. 2) [18]: 3.26e-09 M; IC50 (M) at 150 nM GROα (inhibition of GRO-α, FIG. 2) [18]: 4.6e-09 M; FLIPR hGro-α IC50 [19]: 1100 nM; FLIPR hGro-α IC50 [20]: 15 nM; Human Chemotaxis IC50 (GROα) [9]: 14 nM"
"CXCR20079 (VHH, also called RD-HBC792; RDHBC 792) VHH: EVQLLESGGGLVQPGGSLRLSCAASGSTFDFKVMGWYRQAPGKQREGVAAIRLSGNRHYAESVKGRFTISRANSKNTVYLQMNSLRPEDTAVYYCKVNIRGQDYWGQGTLVTVSS",,,,,,,,,,,,,,,IC50 [16]: 2.8 nM; IC50 [17]: 0.8 nM; Signal:Background [21]: 13 ratio; FLIPR hGro-α IC50 [19]: 450 nM; FLIPR hGro-α IC50 [20]: 10 nM
"97A9 (VHH, Tested as periplasmic extract (pAX50) and as purified His6-tagged protein (pAX100); also called 097A09; not shown: C-terminal c-myc tag and His6 tag coded by the vector) VHH: EVQLVESGGGLVQPGGSLRLSCVASGSIVRINTMGWYRQTPGKQRELVADITSGGNINYIDAVKGRFTISRDNTKNTVYLQMNSLKPEDTAVYYCNAEIVVLVGVWTQRARTGNYWGQGTQVTVSS",100%,640 nM,100%,39.9 nM,100%,50.3 nM,0.8 ratio,53%,64.1 nM,93.9%,17.2 nM,> 100 nM,11.6 nM,85.9%,FLIPR hGro-α IC50 [22]: 800 nM; FLIPR hGro-α IC50 [23]: 94 nM; IC50 [24]: 63 nM; IC50 [25]: 12 nM; Human Chemotaxis IC50 (GROα) [9]: 48.5 nM
"CXCR20061 (VHH, also called RD-HBC793; RDHBC 793) VHH: EVQLLESGGGLVQPGGSLRLSCAASGSIVRINTMGWYRQAPGKQRELVADITSGGNINYADSVKGRFTISRDNSKNTVYLQMNSLRPEDTAVYYCNAEIVVLVGVWTQRARTGNYWGQGTLVTVSS",,,,,,,,,,,,,,,Signal:Background [21]: 6.9 ratio; FLIPR hGro-α IC50 [22]: 350 nM; FLIPR hGro-α IC50 [23]: 66 nM; IC50 [24]: 62 nM; IC50 [25]: 15 nM
